These results are taken from US20050147610A1.

Experiment [1] concerns the target NEM-huIL-18 (recombinant mature human IL-18 treated with N-ethyl maleiamide) (human) (UniProt Q14116). The experiment in a line: cell-based or functional assay.
Experiment [2] addresses 125I labeled rhu-IL-18 (human) (UniProt Q14116). In words: RBA: inhibition of 125I-rhu-IL-18 binding to IL-18Rαβ on KG-1 cells.
For experiment [3], the target named is (4C/A)-huIL-18 (4C/A mutant of mature human IL-18) (human) (UniProt Q14116). In words: BIACORE.
Experiment [4] shares this target. In words: Biacore.
Experiment [5] deals with NEM-huIL-18 (recombinant mature human IL-18 treated with N-ethyl maleiamide) (human) (UniProt Q14116). The experiment in a line: Biacore. On the technique in general: SPR reads the build-up and loss of mass on a sensor chip optically.
In experiment [6] the target is natural human IL-18 (endogenous, human whole blood) (human) (UniProt Q14116). In words: cell-based or functional assay.
Experiment [7] addresses recombinant mature human IL-18 (preparation not specified) (human) (UniProt Q14116). The experiment in a line: cell-based or functional assay.

B1: 268 (antibody, V domains shown)
VH: ZVQLVESGGGVVQPGRSLRLSCAASGFTFRNYGLHWVRQAPGKGLEWVAVIWYDGSNKYYADSVKGRFTISRDNSKNTLYLQMNSLRAEDTAVYYCARESYYYYGMDVWGQGTTVTVSS
VL: EIVMTQSPATLSVSPGERATLSCRASQSFNSNLVWYQQKPGQAPRLLIYGASTRATGIPARFSGSGSGTEFTLTISSLQSEDFAVYYCQQYNNWTWTFGQGTKVEIKR
For B1, the KG-1 Assays (IC50, M), NEM-rhuIL-18 in experiment [1] was determined as 7e-09 M.

B2: Murine anti-human IL-18 mAb (125-2H) (antibody, from another filing, V domains shown)
VH: EIQLQQSGPELVKPGASVKVSCKASGYSFTDYFIYWVKQSHGKSLEWIGDIDPYNGDTSYNQKFRDKATLTVDQSSTTAFMHLNSLTSEDSAVYFCARGLRFWGQGTLVTVSA
VL: DIQMTQSPSSLSASLGERVSLTCRASQDIGSKLYWLQQEPDGTFKRLIYATSSLDSGVPKRFSGSRSGSDYSLTISSLESEDFVDYYCLQYASSPYTFGGGTKLAIKR
What is called IC50 is the point on the concentration scale where inhibition reaches its midpoint. A lower IC50 goes with greater potency in that assay. In general, Kd refers to the concentration at which binding is half-saturated. The term koff denotes a measure of how fast the partners let go of each other. A higher koff goes with fast dissociation. What is called kon is the second-order rate constant of association. High values mean faster complex formation, low ones slower complex formation. B2: the half-maximal inhibitory concentration (IC50) in experiment [2] was > 300 nM. In experiment [3], this molecule yielded a Kd of 0.55 nM, a koff of 0.00011 s⁻¹ and an on-rate (kon) of 190000 M⁻¹ s⁻¹. This molecule had an equilibrium dissociation constant (Kd) in experiment [4] of 0.2 nM. In addition, the Kd in experiment [5] stood at 0.2 nM. The molecule also returned a WBA, Neutralization Potency in vitro (IC50, nM) in experiment [6] of 3 nM. In addition, in experiment [7], the KG-1, Neutralization Potency in vitro (IC50, nM) amounted to 0.2 nM.
